Laboratory results: article doi:10.1101/2024.01.03.573942 (bioRxiv, 2024)

Columns and labels:
[1] = target: ModTad2 (Tad2 homolog encoded by a prophage of Myroides odoratus) (prophage of Myroides odoratus); assay: crystal structure
[2] = target: the molecule itself; assay: crystal structure

Molecule	stoichiometry N [1]	stoichiometry N [2]
ModTad2 (Tad2 homolog encoded by a prophage of Myroides odoratus) (natural protein)	4	–
Macro domain of ThsA(amylo) (residues 83-297), type II Thoeris of Bacillus amyloliquefaciens Y2 (domain or fragment, UniProt I2C645 83-297, looked up) NNITLNLNGSEVEIKKGDIFEVPRNNYKVIAFNEYFDTQVDDVIIARETLNGQYIKRYYSHQDITELDQKIKDDVKLKIEEKNVERPFGGKTTRYSLGSVFKDMDFFLVAFSKFDRENRAQLKLNEYASCMLNVWNEINTLHASKEVFIPLLGSGITRHVDSDVGVNELLHIMLWTFQISKVKFREPAKVTILLYKNDHKKINFYKLKEFEKNGL	–	2
